Molecular target: large-conductance Ca2+-activated potassium (BK) channel pore-forming α subunit (rat (endogenous in cerebral artery …, UniProt Q62976 1-1209))
Assay: FRET or BRET

Sequence of large-conductance Ca2+-activated potassium (BK) channel pore-forming α subunit (rat (Q62976 whole entry): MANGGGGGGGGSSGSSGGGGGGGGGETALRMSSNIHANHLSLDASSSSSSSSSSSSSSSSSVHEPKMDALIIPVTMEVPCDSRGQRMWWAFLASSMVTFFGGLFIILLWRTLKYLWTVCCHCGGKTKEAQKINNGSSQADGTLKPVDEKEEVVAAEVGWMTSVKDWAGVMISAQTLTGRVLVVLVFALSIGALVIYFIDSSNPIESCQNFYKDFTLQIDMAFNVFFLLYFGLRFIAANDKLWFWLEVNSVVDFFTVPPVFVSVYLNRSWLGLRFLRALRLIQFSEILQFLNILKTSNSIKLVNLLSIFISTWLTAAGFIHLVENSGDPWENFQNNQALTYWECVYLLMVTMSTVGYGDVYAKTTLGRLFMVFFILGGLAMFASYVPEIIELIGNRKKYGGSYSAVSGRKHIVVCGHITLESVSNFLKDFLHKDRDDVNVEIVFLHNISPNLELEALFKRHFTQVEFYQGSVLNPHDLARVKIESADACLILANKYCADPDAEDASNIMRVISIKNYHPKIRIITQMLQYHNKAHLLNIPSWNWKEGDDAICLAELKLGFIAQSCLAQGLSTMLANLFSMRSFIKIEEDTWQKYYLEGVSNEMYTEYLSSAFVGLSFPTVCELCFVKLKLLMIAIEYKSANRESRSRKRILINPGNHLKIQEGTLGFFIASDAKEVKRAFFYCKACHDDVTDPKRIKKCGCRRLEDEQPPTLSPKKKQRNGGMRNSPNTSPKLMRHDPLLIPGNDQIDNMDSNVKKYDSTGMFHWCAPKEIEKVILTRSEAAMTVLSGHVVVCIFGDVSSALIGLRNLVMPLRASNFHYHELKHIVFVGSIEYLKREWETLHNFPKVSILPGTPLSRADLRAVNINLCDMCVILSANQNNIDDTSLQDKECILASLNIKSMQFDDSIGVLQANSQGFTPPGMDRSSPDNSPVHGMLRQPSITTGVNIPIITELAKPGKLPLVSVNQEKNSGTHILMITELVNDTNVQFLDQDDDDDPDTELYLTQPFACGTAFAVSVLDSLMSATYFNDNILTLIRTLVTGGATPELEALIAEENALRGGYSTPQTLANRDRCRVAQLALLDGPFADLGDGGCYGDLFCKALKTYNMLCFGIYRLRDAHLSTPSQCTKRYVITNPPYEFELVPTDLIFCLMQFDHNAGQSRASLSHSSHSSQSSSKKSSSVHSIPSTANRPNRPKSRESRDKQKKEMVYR

B1: BK channel auxiliary β1 subunit (natural protein, UniProt P97678 1-191, looked up)
chain: MGKKLVMAQKRGETRALCLGVAMVVCAAITYYILGTTVLPLYQKSVWTQESTCHLVETNIKDQEELEGRKVPQYPCLWVNVSAVGRWAMLYHTEDTRDQNQQCSYIPRNLDNYQTALVDVKKVRANFYKHHNFYCFSAPQVNETSVVYQRLYGPQILLFSFFWPTFLLTGGLLIIAMVKLNRSLSVLAAQK
Question: How did the “fold increase of normalized FRET, 60 mM K+ against 6 mM K+” value turn out when B1 was run?
Answer: ~3.4 fold

Reference: paper PMC5812274 (Science signaling, 2017)
